No end group written: not given here. d = 2'-deoxy (DNA); r = 2'-OH (RNA)
How the values were obtained:
HeLa cells = assay: Live cell imaging by fluorescence microscopy; format: cell-based, human; settings: compared with 5L AuNPs
Description: Fluorescence images of live cells were acquired using a fluorescence microscopy system (Olympus, Tokyo, Japan). Briefly, HeLa and MDA-MB231 cells were collected by trypsinization, counted, and plated in a 96-well black clear-bottom culture plate (Corning Life Sciences, Pittston, Pa.) at a density of 1×10^3 cells per well. After 1 day, AuNPs (2.52×10^8 particles) were added and incubated for 12 hours. Cells were then washed three times with PBS and cultured in phenol red-free medium and imaged with a fluorescence microscopy at the time points indicated. In a separate set of experiment, cells were treated with CellTrackers, CM-DiI (2 μM), or CMTMR (7.5 μM, Invitrogen). One day after cell seeding, HeLa and MDA-MB231 cells were incubated with CM-DiI for 5 minutes at 37° C. and then further incubated at 4° C. for an additional 15 minutes according to manufacturer's protocol. After removing the medium, the cells were then incubated for an additional 15 minutes at 4° C. For CMTMR study, cells were incubated with CMTMR for 30 minutes at 37° C. and the medium was then replaced with fresh medium and incubated for a further 30 minutes. After labeling with CM-DiI or CMTMR, cells were washed three times with PBS and cultured in phenol red-free medium and imaged under a fluorescence microscopy as indicated.

Jurkat cells = assay: Fluorescence retention, flow cytometry; format: cell-based; settings: day 4
Description: Jurkat cells (1.0×10^6 cells) were seeded in a 12-well culture plate (BD Falcon, San Jose, Calif.) together with 5L AuNPs (1.26×10^9 particles) in 400 μl RPMI 1640 medium and cultured for 24 hours in the dark at 37° C. in a 5% CO2 atmosphere. Cells (4×10^5) were then transferred to a FACS tube after three washes with PBS, and the FITC fluorescence signal inside the cells was measured using a BD LSR II flow cytometry (BD Biosciences, San Jose, Calif.). Remaining cells were cultured in 6-well culture plates (BD Falcon) in 4 ml RPMI 1640 medium. The procedure was repeated at different time points, up to 21 days. In a separate set of experiments, Jurkat cells (1.0×10^6) were incubated with CM-DiI (1 μM) or CMTMR (2 μM) following the manufacturer's instructions. On the designated day, the fluorescence signal of CM-DiI or CMTMR was measured using a PE filter set by a BD LSR II flow cytometry.

Cath E [1] = target: T1, Cath E (Homo sapiens, UniProt P14091); assay: Ex vivo NIRF imaging of MDA PATC-3 orthotopic tumors in mice; set-up: endogenous in cells; host or cells: primary patient PDAC tumour grafts (subcutaneous) and MDA PATC-3 orthotopic tumours in immunodeficient mice; settings: organs excised, 48 hours after iv probe
T1 sequence (P14091 54-396): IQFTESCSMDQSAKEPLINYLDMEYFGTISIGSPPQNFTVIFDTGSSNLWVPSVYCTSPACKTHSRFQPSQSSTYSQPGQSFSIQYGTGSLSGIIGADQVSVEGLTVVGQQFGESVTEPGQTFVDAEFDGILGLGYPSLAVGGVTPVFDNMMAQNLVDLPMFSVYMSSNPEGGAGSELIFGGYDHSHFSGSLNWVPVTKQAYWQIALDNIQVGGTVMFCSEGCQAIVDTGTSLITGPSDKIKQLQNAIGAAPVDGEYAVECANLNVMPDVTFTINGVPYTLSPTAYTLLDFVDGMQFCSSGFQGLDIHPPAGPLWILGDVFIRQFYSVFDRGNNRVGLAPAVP
Description: To establish orthotopic tumors, mice were anesthetized as described above, and the pancreas was exposed through a left abdominal incision (laparotomy). Subconfluent MDA PATC-3 cells were detached with 0.25% trypsin-EDTA and cell viability was assessed by trypan blue exclusion. Cells (1×10^6) were resuspended in 50 uL of Hanks Balanced Salt Solution (HBSS) and directly injected into the pancreas (caudal). After tumor implantation, the pancreas was carefully returned to the peritoneal cavity and the abdomen was closed. Two months after tumor implantation, fluorescent probe was injected via tail vein and imaged 48 hours after injection.
(§1) Subcutaneous models (human material PDAC tumor grafts with mice bearing 2 tumors each n=4, MDA PATC-3 orthotopic model n=3, MPanc96 expressing low levels of Cath E (MPanc96-FG30) n=10, and MPanc96 expression high levels of Cath E (Mpanc96-Cath E) n=10) and two transgenic models with litter controls (n=5 each) were used to assess the usefulness of the Cath E-activatable imaging probe. […] White light and near infrared fluorescence (NIRF) images were acquired sequentially using Cy5.5 fluorescence filters (615-665 nm excitation filter and 695-770 nm emission filter). […] Fluorescence variations between different organs/tissues were corrected by subtracting the autofluorescence signals obtained from imaging organs/tissues of mice without any probe injected. […]

Cath E [2] = target: T2, Cath E (Mus musculus, UniProt P70269); assay: Ex vivo NIRF imaging of GEMM PDAC tumors; format: in vivo
T2 construct: from tissue; host or cells: pancreas, PDAC tumours and PanIN lesions of GEMMs (cLGL-KRasG12V/Bac-Ela-CreER; p53 conditional deletion/LSL-KrasG12D/Pdx1-Cre)
T2 sequence (P70269 60-397): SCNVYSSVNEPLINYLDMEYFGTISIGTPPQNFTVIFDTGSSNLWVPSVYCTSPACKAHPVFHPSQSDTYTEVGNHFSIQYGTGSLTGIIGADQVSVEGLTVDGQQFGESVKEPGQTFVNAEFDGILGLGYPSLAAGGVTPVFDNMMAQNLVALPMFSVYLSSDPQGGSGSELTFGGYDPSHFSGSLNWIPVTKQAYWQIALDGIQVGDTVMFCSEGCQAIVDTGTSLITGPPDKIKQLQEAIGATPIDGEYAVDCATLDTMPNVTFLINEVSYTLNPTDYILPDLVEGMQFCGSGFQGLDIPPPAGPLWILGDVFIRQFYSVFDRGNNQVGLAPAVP
Description: To assess whether Cath E activity served as a biomarker for in vivo imaging, studies were performed in human pancreatic cancer xenografts in immunodeficient mice (acquired from the National Cancer Institute with age of the mice ranging from 5-6 weeks old) and transgenic mice. Animals were housed at the MD Anderson Cancer Center animal facility. Mice used for optical imaging studies were fed with a chlorophyll-free diet. Genetic PanINs and PDAC mouse models were developed by crossing cLGL-KRas^G12V with Bac-Ela-CreER mice as described previously (Ji et al., Gastroenterology 137:1072-82 (2009)). These animals developed PanINs at 2 months and PDAC by ˜6 months. […] PDAC in these mice developed in 6-8 weeks after birth (Bardeesy et al., Proc. Natl. Acad. Sci. USA 103:5947-52 (2006)). Littermates without PDAC served as controls. LSL-KRas^G12D, p53 floxed, and Pdx-1-Cre genetic mice were obtained from the Mouse Models for Human Cancer Consortium Repository (Rockville, Md.).
Subcutaneous models (human material PDAC tumor grafts with mice bearing 2 tumors each n=4, MDA PATC-3 orthotopic model n=3, MPanc96 expressing low levels of Cath E (MPanc96-FG30) n=10, and MPanc96 expression high levels of Cath E (Mpanc96-Cath E) n=10) and two transgenic models with litter controls (n=5 each) were used to assess the usefulness of the Cath E-activatable imaging probe. Animals were injected with a single dose of the optical imaging probe (1 nmol/100 μl PBS) or saline (controls) intravenously through tail vein using a 30 gauge syringe needle. The anesthetized mice were placed in the heated imaging platform of IVIS-100/Spectrum optical imaging systems (Xenogen/Caliper, Mountain View, Calif.). White light and near infrared fluorescence (NIRF) images were acquired sequentially using Cy5.5 fluorescence filters (615-665 nm excitation filter and 695-770 nm emission filter). Mice were imaged 48 hours post probe intravenous injection. Mice were sacrificed and organs/tissues were excised and rinsed with PBS then imaged for their associated NIRF. Fluorescence variations between different organs/tissues were corrected by subtracting the autofluorescence signals obtained from imaging organs/tissues of mice without any probe injected. General illumination setting and image acquisition parameters were: epi-illumination; 0.5 sec. exposure time; f/stop=2; binning (HR)4; field of view (FOV=12.9 cm or 6.5 cm width and height). The mean fluorescence flux from each image was defined as photons per second per centimeter squared per steradian (p/s/cm^2/sr). Acquired images were analyzed using Living Image 3.1 software (Xenogen/Caliper, Alameda, Calif.). Fluorescence contrast, defined as radiance, was quantified using identical size regions of interest (ROI).

Cath E [3] = target: T1, Cath E; assay: In vivo NIRF imaging of primary patient tumor grafts in mice; set-up: endogenous in cells; host or cells: primary patient PDAC tumour grafts (subcutaneous) and MDA PATC-3 orthotopic tumours in immunodeficient mice; settings: 48 hours after iv probe, immunodeficient mice
Description: Human cancer specimens used for transplantation as primary tumor grafts were obtained from patients with pancreatic invasive ductal adenocarcinoma who had undergone initial surgical resection at UT MD Anderson Cancer Center (Kim et al., Nat. Protoc. 4:1670-80 (2009)). Nude mice were anesthetized with a single intraperitoneal injection of ketamine (100 mg/kg) and xylazine (10 mg/kg). After washing with sterile PBS, tumor fragments were placed in the subcutaneous space of immunodeficient mice (Kim et al., Nat. Protoc. 4:1670-80 (2009)). When the tumor was visible, it was dissected out and transplanted into male nude mice and allowed to grow for 30 days. […]
as §1, with “The mean fluorescence flux” for “Fluorescence variations between different organs/tissues were corrected by subtracting the autofluorescence signals obtained”, “each image was defined as photons per second per centimeter squared per steradian (p/s/cm^2/sr).” for “imaging organs/tissues of mice without any probe injected.”

Cath E [4] = target: T2, Cath E; assay: Ex vivo NIRF imaging of GEMM pancreas with PanIN lesions; format: in vivo; settings: 48 hours after probe injection, 2 months old mice
Description: To assess whether Cath E activity served as a biomarker for in vivo imaging, studies were performed in human pancreatic cancer xenografts in immunodeficient mice (acquired from the National Cancer Institute with age of the mice ranging from 5-6 weeks old) and transgenic mice. Animals were housed at the MD Anderson Cancer Center animal facility. Mice used for optical imaging studies were fed with a chlorophyll-free diet. Genetic PanINs and PDAC mouse models were developed by crossing cLGL-KRas^G12V with Bac-Ela-CreER mice as described previously (Ji et al., Gastroenterology 137:1072-82 (2009)). These animals developed PanINs at 2 months and PDAC by ˜6 months. […]
as §1, with “The mean fluorescence flux” for “Fluorescence variations between different organs/tissues were corrected by subtracting the autofluorescence signals obtained”, “each image was defined as photons per second per centimeter squared per steradian (p/s/cm^2/sr).” for “imaging organs/tissues of mice without any probe injected.”

[5] = system: firefly luciferase in MDA-MB231-luc2 cells; assay: Luciferase gene silencing, bioluminescence; format: cell-based, human; settings: 5 days, same conditions
Description: For the examination of the gene silencing effect, bioluminescence measurement was performed after incubating with various multilayered AuNPs. Cells were seeded in a 96-well black clear bottom culture plate at a density of 2.5×10^3 (or 1.25×10^4 of LNCaP-luc2) cells per well. One day later, different sRAuNP (1.26×10^8 particles) were added to each well and cultured for an additional 24 hours. The cells were further cultured in phenol red free medium for another 5 days. Manufacturer's direction was followed for the transfection with Lipofectamine. Bioluminescence measurement was performed using IVIS 200 (Caliper) immediately after addition of 125 μg mL^−1 of D-Luciferin (Regis).

CCCCCCCCCCCCCCCCCCN1C(=CC=CC2=[N+](CCCCCCCCCCCCCCCCCC)c3ccccc3C2(C)C)C(C)(C)c2cc(CNC(=O)c3ccc(CCl)cc3)ccc21.[Cl-] [CM-DiI]
signal strength (HeLa cells): much weaker than that of the 5L AuNPs
fluorescence intensity, % of the original intensity (Jurkat cells): 8%

Cath E-activatable imaging probe: Cy5.5-labeled Ala-Gly-Phe-Ser-Leu-Pro-Ala-Gly-CysCONH2 (SEQ ID NO:29) loaded on D-polyethylene glycol protected grafted copolymer (DPGC) (AGFSLPAGC-NH2; also: Cy5.5 label, place not given here, loaded on D-polyethylene glycol protected grafted copolymer (DPGC))
fluorescence signal at orthotopic primary cell tumors (Cath E [1]): strong signal specifically localized to the tumors in the pancreas
increase in fluorescence in pancreas tumors compared to normal pancreas (Cath E [2]; 48 hours after 1 nmol probe iv, pooled GEMMs): ~15 fold
tumor to non-tumor signal ratio, tumor/bone (Cath E [2]; 48 hours after probe): 2.6
tumor to non-tumor signal ratio, tumor/kidney (Cath E [2]; 48 hours after probe): 1.9
tumor to non-tumor signal ratio, tumor/lung (Cath E [2]; 48 hours after probe): 2.9
tumor to non-tumor signal ratio, tumor/muscle (Cath E [2]; 48 hours after probe): 5.5
tumor to non-tumor signal ratio, tumor/normal pancreas (Cath E [2]; 48 hours after probe): 2.2
tumor to non-tumor signal ratio, tumor/small intestine (Cath E [2]; 48 hours after probe): 1.7
tumor to non-tumor signal ratio, tumor/spleen (Cath E [2]; 48 hours after probe): 3.9
fluorescence signal at subcutaneous patient tumor grafts (Cath E [3]): strong specific fluorescence signal localized to the implanted tumor grafts
increase in fluorescence in pancreas with PanIN lesions compared to normal pancreas (Cath E [4]): ~3 fold

Free unformulated siRNA: siRNA against luciferase, SEQ ID NO:17/18, unformulated (chain 1 CGUACGCGGAAUACUUCGATT; chain 2 UCGAAGUAUUCCGCGUACGTT; sugars from the 5' end r19 d2, backbone not given here)
silencing effect [5]: didn't show any appreciable effect

— patent publication US9265844B2, “Protease degradable polypeptides and uses thereof” (THE METHODIST HOSPITAL SYSTEM, priority 2010, dated 2016)
